Assay results from the RNAGym collection of RNA variant scans (doi:10.1093/molbev/msab373).

B1: Azoarcus group I ribozyme (parent)
chain: GUGCCUUGCGCCGGGAAACCACGCAAGGGAUGGUGUCAAAUUCGGCGAAACCUAAGCGCCCGCCCGGGCGUAUGGCAACGCCGAGCCAAGCUUCGGCGCCUGCGCCGAUGAAGGUGUAGAGACUAGACGGCACCCACCUAAGGCAAACGCUAUGGUGAAGGCAUAGUCCAGGGAGUGGCGAAAGUCACACAAACCGG

Variants of: B1
Assay: reverse-splicing fitness (ratio to wild type); higher = more active; in vitro selection; Mg2+ level not given
In short: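 An in vitro group I ribozyme library with randomized positions was T7-transcribed and gel-purified. In triplicate, 10 pmol RNA in EPPS pH 7.5 was reacted with 50 pmoles of a 30-nt RNA substrate for 1 h at 37 °C across several added MgCl2 levels (1–48 mM), then stopped with EDTA. Products were reverse transcribed from a substrate-complementary primer, PCR-amplified and sequenced (HiSeq 4000). Fitness is a variant's read proportion after selection over that before, normalised to wild type.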

Row | Variant | reverse-splicing fitness
1 | C82A A111C A120U A145U C150A C169A U176A | 0.00258
2 | C82A A111C A120G C150G U176G | 0.00292
3 | C82A A111C A120G C150G U176C | 0.0155
4 | C82A A111C A120G C150G U176A | 0.00868
5 | C82A A111C A120U C150G C169A U176C | 0.00597
6 | C82A A111C A120U C150G C169A U176A | 0.00579
7 | C82A A111C A120U C150G C169A U176G | 0.00319
8 | C82A A111C A120U A145U C150A U176A | 0.00477
9 | C82A A111C A120U A145U C150A U176G | 0.00301
10 | C82A A111C A120U A145U C150A U176C | 0.0062
11 | C82A A111C A120G C150U | 0.0107
12 | C82A A111C A120G C150A | 0.00933
13 | C82A A111C A120G C150G | 0.00723
14 | C82A A111C A120U A145G C169U | 0.00493
15 | C82A A111C A120U A145G C169G | 0.00415
16 | C82A A111C A120U A145G C169A | 0.00372
17 | C82A A111C A120U A145U U176C | 0.0103
18 | C82A A111C A120U A145U U176G | 0.00339
19 | C82A A111C A120U A145U U176A | 0.00697
20 | C82A A111C A120U A145U C150G | 0.00626
21 | C82A A111C A120U A145U C150U | 0.0169

Row | Variant | reverse-splicing fitness
22 | C82A A111C A120U A145U C150A | 0.00598
23 | C82A A111C A120U C150A C169G U176G | 0.00295
24 | C82A A111C A120U C150A C169G U176C | 0.00395
25 | C82A A111C A120U C150A C169G U176A | 0.00598
26 | C82A A111C A120G C150A C169U U176C | 0.018
27 | C82A A111C A120G C150A C169U U176G | 0.00682
28 | C82A A111C A120G C150A C169U U176A | 0.018
29 | C82A A111C A120U A145G C150U C169A | 0.00691
30 | C82A A111C A120U A145G C150U C169U | 0.00603
31 | C82A A111C A120U A145G C150U C169G | 0.0065
32 | C82A A111C A120U A145U C150G C169A U176C | 0.00377
33 | C82A A111C A120U A145U C150G C169A U176G | 0.00338
34 | C82A A111C A120U A145U C150G C169A U176A | 0.00379
35 | C82A A111C A120U A145G C150A C169G U176G | 0.00261
36 | C82A A111C A120U A145G C150A C169G U176C | 0.00514
37 | C82A A111C A120U A145G C150A C169G U176A | 0.00687
38 | C82A A111C A120U A145G C150U C169G U176G | 0.00299
39 | C82A A111C A120U A145G C150U C169G U176C | 0.00509
40 | C82A A111C A120U A145G C150U C169G U176A | 0.00597
41 | C82A A111C A120U A145C C150G C169A U176C | 0.00263
42 | C82A A111C A120U A145C C150G C169A U176A | 0.00353

Row | Variant | reverse-splicing fitness
43 | C82A A111C A120U A145C C150G C169A U176G | 0.00275
44 | C82A A111C A120G A145U C150U C169U | 0.00924
45 | C82A A111C A120G A145U C150U C169G | 0.00909
46 | C82A A111C A120G A145U C169U U176A | 0.0132
47 | C82A A111C A120G A145U C169U U176G | 0.00449
48 | C82A A111C A120G A145U C169U U176C | 0.0118
49 | C82A A111C A120U C150U U176C | 0.0107
50 | C82A A111C A120U C150U U176A | 0.00771
51 | C82A A111C A120U C150U U176G | 0.00381
52 | C82A A111C A120G A145U C150U U176A | 0.0121
53 | C82A A111C A120G A145U C150U U176C | 0.0188
54 | C82A A111C A120G A145U C150U U176G | 0.00527
55 | C82A A111C A120U C150U C169A U176C | 0.00323
56 | C82A A111C A120U C150U C169A U176A | 0.00537
57 | C82A A111C A120U C150U C169A U176G | 0.00324
58 | C82A A111C A120U A145C C169G U176G | 0.00255
59 | C82A A111C A120U A145C C169G U176C | 0.00316
60 | C82A A111C A120U A145C C169G U176A | 0.00292
61 | C82A A111C A120U A145C C169U U176C | 0.00326
62 | C82A A111C A120U A145C C169U U176G | 0.00232
63 | C82A A111C A120U A145C C169U U176A | 0.00272

Row | Variant | reverse-splicing fitness
64 | C82A A111C A120G A145U C169G U176A | 0.0102
65 | C82A A111C A120G A145U C169G U176C | 0.012
66 | C82A A111C A120G A145U C169G U176G | 0.00481
67 | C82A A111C A120G U176A | 0.0144
68 | C82A A111C A120G U176C | 0.0255
69 | C82A A111C A120G U176G | 0.00584
70 | C82A A111C A120U A145G C150U C169A U176A | 0.00915
71 | C82A A111C A120U A145G C150U C169A U176G | 0.00324
72 | C82A A111C A120U A145G C150U C169A U176C | 0.00432
73 | C82A A111C A120U A145G C169A U176C | 0.00466
74 | C82A A111C A120U A145G C169A U176A | 0.00438
75 | C82A A111C A120U A145G C169A U176G | 0.00219
76 | C82A A111C A120U C150U C169U U176A | 0.00738
77 | C82A A111C A120U C150U C169U U176C | 0.00534
78 | C82A A111C A120U C150U C169U U176G | 0.0027
79 | C82A A111C A120U A145U | 0.0205
80 | C82A A111C A120U A145G | 0.023
81 | C82A A111C A120U A145C | 0.0196
82 | C82A A111C A120U A145U C150A C169G U176G | 0.00247
83 | C82A A111C A120U A145U C150A C169G U176A | 0.003
84 | C82A A111C A120U A145U C150A C169G U176C | 0.00377
